The values that follow are results of earlier work, collected in PMC10813008.

Series [1] has as its target His61 (UniProt position 92, RYQMDHGARIF). Description: NMR.
The target of series [2] is His81 (UniProt position 112, NTIVLHHGPLY). Description: NMR.
The target in series [3] is His25 (UniProt position 26, QTCVVHYTGML). The experiment in a line: NMR. As to conditions: not stated (ref 75 studied forms with and without immunosuppressant ligands; the review does not say which form the limit refers to).
The target in series [4] is His54 (UniProt position 54, KGSCFHRIIPG). Description: NMR. As to conditions: not stated (ref 75 studied forms with and without immunosuppressant ligands; the review does not say which form the limit refers to).
In series [5] the target is His119 (UniProt position 145, PYVPVHFDASV). Description: mass spectrometry.
Series [6] has as its target His12 (UniProt position 38, KFERQHMDSST). Description: mass spectrometry.
Where [7] appears, read: complex with 3'-cytidine monophosphate (3'-CMP).

Broadly, the pKa is the pH at which an ionisable group is half protonated. Take “Phosphatidylinositol-specific phospholipase C (PI-PLC) (Bacillus cereus)”: the pKa in series [1] and in series [2] was under 3 in each case.
Take “FK506 binding protein (FKBP) (not stated (probably Homo sapiens))”: the pKa in series [3] is listed as under 3.6.
With “Cyclophilin (cyclophilin A) (not stated (probably Homo sapiens))”, the pKa in series [4] was under 4.2.
For “Ribonuclease A (RNase A, pancreatic ribonuclease) (Bos taurus)”, the pKa was 7.0 in series [5] (setting [7]), 6.3 in series [5] (free enzyme), 7.1 in series [6] (setting [7]) and 5.8 in series [6] (free enzyme).
